This experiment concerns the target T1, human mesothelin expressed on the plasma membrane of cells (HeLa, OVCAR-3, SK-OV-3, A1847) (human, UniProt Q13421 296-598).
T1 construct: whole, on cells; GPI-linked cell-surface form on human cell lines and on A1847 spheroid sections and tumors; also called Msln
Description: flow cytometry on HeLa cells, chemically biotinylated Nb, PE-streptavidin, double-reciprocal fit. On the procedure:
In specific experimental embodiments, the affinity of the two Nbs, Nb A1 and Nb C6, can determined by flow cytometry using HeLa cells. Binding to HeLa cells can be detected using flow cytometry after incubation with various concentrations of biotinylated Nbs followed by PE-labeled streptavidin. KD values are determined by the equation KD=a *Fₘₐₓ in which “a” is the regression line and Fₘₐₓ is the maximum of fluorescence. […] In addition, the higher affinity and maximum mean fluorescence intensity (MFI) achieved with Nb A1 is consistent with its predominant representation in the phage display output and the larger fluorescence shift seen with flow cytometry.
Briefly, fifty μg of each Nb are biotinylated chemically using the EZ-Link Micro NHSPEO4-Biotinylation Kit. After incubation of mesothelin-positive HeLa cells (5×10⁵) with various concentrations of biotinylated Nbs for one hour at four degrees C. under shaking (nine hundred rpm), Nbs binding is detected by flow cytometry following incubation with (PE)-labeled streptavidin. The KD values are determined by the equation: […]

T1 sequence (Q13421 other isoform, or with tags, fused parts or gaps limits assumed): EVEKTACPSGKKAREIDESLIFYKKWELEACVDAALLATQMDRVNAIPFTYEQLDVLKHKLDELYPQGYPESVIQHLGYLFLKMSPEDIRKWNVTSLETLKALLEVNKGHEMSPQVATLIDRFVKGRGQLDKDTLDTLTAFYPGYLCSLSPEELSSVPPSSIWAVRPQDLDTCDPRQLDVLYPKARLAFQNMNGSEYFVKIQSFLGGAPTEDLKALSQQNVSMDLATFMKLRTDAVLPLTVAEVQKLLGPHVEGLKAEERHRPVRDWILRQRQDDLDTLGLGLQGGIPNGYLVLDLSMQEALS

B1: Nb A1 (VHH)
VHH: HPGGSLRLSCAASGIDLSLYRMRWYRQAPGKERDLVALITDDGTSYYEDSVKGRFTITRDNPSNKVFLQMNSLKPEDTAVYYCNAETPLSPVNYWGQ
notes: Llama VHH made in the E. coli periplasm with a C-terminal His tag; also called G3A; G3a; not shown: C-terminal hexahistidine tag
Take B1: the Kd (commonly a measure of binding affinity in units of concentration) was roughly 0.015 µM.

B2: Nb C6 (VHH)
VHH: QAGGSLRLSCAPSGSIFGIRTMDWYRQAPGKERELVARITMDGRVFHADSVKGRFSGSRDGASNAVYLQMNSLKPDDTAVYYCRYSGLTSREDYWGP
notes: Llama VHH made in the E. coli periplasm with a C-terminal His tag; also called F10; not shown: C-terminal hexahistidine tag
On to B2, for which the Kd is 0.03 µM.
